Where two headings read alike, the source gives them in different places.

For assay [1], the target named is His-tagged eukaryotic translation initiation factor 1 (His–eIF1), labelled with NT650 (UniProt P32911). Kind of assay: temperature-related intensity change assay.
For assay [2] the target is unchanged. Kind of assay: temperature-related intensity change assay. This is another data set of the same source.

Sequence of UniProt P32911 (P32911 whole entry): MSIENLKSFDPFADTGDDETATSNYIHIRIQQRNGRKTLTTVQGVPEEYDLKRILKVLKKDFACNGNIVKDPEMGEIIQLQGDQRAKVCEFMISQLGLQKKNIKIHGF

A word on the Kd: it is the equilibrium constant for the complex coming apart. High values mean a looser complex, low ones a tighter complex. The substance “40S ribosomal subunit from wild-type control (BY4741 / BCD1) yeast cells (from UniProt P05750 1-240) (complex)” yielded a Kd in assay [1] of 23 nM.
Turning to “hypo-2′-O-methylated 40S ribosomal subunit from bcd1-D72A yeast cells (from UniProt P05750 1-240) (complex)”, the results for the Kd in assay [2] and in assay [1] were 63 nM and 64 nM, respectively.

The values are drawn from publication PMC8944910.
